Assay results: patent publication US20250011468A1 (Novo Nordisk, published 2025)
Blank lines part the entries; values can stand above or below the binder they belong to.

Key:
[1] = target: T1, wild-type FIX with C-terminal His-tag (human, UniProt P00740 47-461); assay: SPR (Biacore T200), His-tagged FIX captured by anti-His antibody, one-armed antibody as analyte; % of wild-type binding
T1 construct: Secreted mature FIX from expi293F cells; also called WT
Experimental: (§1) SPR analyses were carried out on Biacore 4000 or Biacore T200 instruments (Biacore AB, Uppsala, Sweden). For the experiments on the T200 instrument the following conditions were applied: measurements were conducted at a temperature of 25° C. Anti-His antibody at 25 μg/ml (R&D Systems, catalogue #MAB050) was immobilized on a CM5 sensor chip using standard amine coupling chemistry. […] at 25 nM were injected at a flow rate of 10 μl/min for 1 min and were captured via their His-tag by the immobilized anti-His antibody. Subsequently, 200 nM (with 4-fold serial dilutions), 1600 nM (with 3-fold serial dilutions), and 2000 nM (with 3-fold serial dilution) of mAb4-0004, mAb3-3279 and mAb4-0673, respectively, were injected at a flow rate of 50 μl/min for 5 min to allow for binding to captured FIX variant followed by a 10 min buffer injection allowing for dissociation of the monovalent anti-FIX antibodies. The running buffer used was 20 mM Tris, 150 mM NaCl, 5 mM CaCl₂, 0.05% Tween-20, 1 mg/ml BSA, pH 7.4. This was also used for dilution of anti-FIX antibody and FIX samples. Regeneration of the chip was achieved using 10 mM Glycine pH 2.0. Binding data were analysed according to a 1:1 model using BiaEvaluation 4.1 supplied by the manufacturer (Biacore AB, Uppsala, Sweden). A similar experimental set-up was used for the Biacore 4000 instrument.

[2] = target: FIX H256A with C-terminal His-tag (human, UniProt P00740 47-461); assay: SPR (Biacore T200), His-tagged FIX variant captured by anti-His antibody, one-armed antibody as analyte; % of wild-type binding
Experimental: as §1
(§2) A more detailed binding analysis was conducted for residues defined as epitope residues (see example 6) using the Biacore T200 instrument.

[3] = target: FIX H257A with C-terminal His-tag (human, UniProt P00740 47-461); assay: as above
Experimental: as §1, §2

[4] = target: FIX N258A with C-terminal His-tag (human, UniProt P00740 47-461); assay: as above
Experimental: as §1, §2

[5] = target: FIX K293A with C-terminal His-tag (human, UniProt P00740 47-461); assay: as above
Experimental: as §1, §2

[6] = target: FIX R403A with C-terminal His-tag (human, UniProt P00740 47-461); assay: as above
Experimental: as §1, §2

[7] = target: FIX Y404F with C-terminal His-tag (human, UniProt P00740 47-461); assay: as above
Experimental: as §1, §2

[8] = target: FIX N406A with C-terminal His-tag (human, UniProt P00740 47-461); assay: as above
Experimental: as §1, §2

[9] = target: FIX E410Q with C-terminal His-tag (human, UniProt P00740 47-461); assay: as above
Experimental: as §1, §2

[10] = target: FIX K411A with C-terminal His-tag (human, UniProt P00740 47-461); assay: as above
Experimental: as §1, §2

desGla-desEGF1-FX T116A = desGla-desEGF1-FX T116A (human, UniProt P00742 126-488); assay: SPR (Biacore T200), antibody captured by anti-hIgG Fc, FX variant injected; % of wild-type binding
desGla-desEGF1-FX A118S = desGla-desEGF1-FX A118S (human, UniProt P00742 126-488); assay: as above
desGla-desEGF1-FX T127A = desGla-desEGF1-FX T127A (human, UniProt P00742 126-488); assay: as above
desGla-desEGF1-FX S227A = desGla-desEGF1-FX S227A (human, UniProt P00742 126-488); assay: as above
desGla-desEGF1-FX E228A = desGla-desEGF1-FX E228A (human, UniProt P00742 126-488); assay: as above
desGla-desEGF1-FX F229A = desGla-desEGF1-FX F229A (human, UniProt P00742 126-488); assay: as above
desGla-desEGF1-FX E266A = desGla-desEGF1-FX E266A (human, UniProt P00742 126-488); assay: as above
desGla-desEGF1-FX R287A = desGla-desEGF1-FX R287A (human, UniProt P00742 126-488); assay: as above
desGla-desEGF1-FX E305A = desGla-desEGF1-FX E305A (human, UniProt P00742 126-488); assay: as above
desGla-desEGF1-FX L419A = desGla-desEGF1-FX L419A (human, UniProt P00742 126-488); assay: as above
desGla-desEGF1-FX K420A = desGla-desEGF1-FX K420A (human, UniProt P00742 126-488); assay: as above
desGla-desEGF1-FX T428A = desGla-desEGF1-FX T428A (human, UniProt P00742 126-488); assay: as above
[11] = target: T2, wild-type desGla-desEGF1-FX (human, UniProt P00742 126-488); assay: as above
T2 construct: Expressed in HEK293; also called WT; desGLA-desEGF1-hFX

desGla-desEGF1-FX H101A = desGla-desEGF1-FX H101A (human, UniProt P00742 126-488); assay: as above
desGla-desEGF1-FX E103A = desGla-desEGF1-FX E103A (human, UniProt P00742 126-488); assay: as above
desGla-desEGF1-FX R113A = desGla-desEGF1-FX R113A (human, UniProt P00742 126-488); assay: as above
desGla-desEGF1-FX Y230A = desGla-desEGF1-FX Y230A (human, UniProt P00742 126-488); assay: SPR (Biacore T200), antibody captured by anti-hIgG Fc, FX variant injected (10 µM); % of wild-type binding
Experimental: Identification of hot-spot epitope residues was done using a Biacore T200 instrument at 25° C. Anti-hIgG Fc antibody from the Human Antibody Capture Kit (GE Healthcare, Catalogue #BR100839) at 2 μg/ml was immobilized on a Series S Sensor Chip CM5 (GE Healthcare, Catalogue #BR100530) using standard amine coupling chemistry. The anti-FX antibody mAb4-6934 (monovalent variant of mAb1-6723) was injected at the flow rate of 5 μL/min for 30 sec and captured by the immobilized anti-hIgG Fc antibody. […] Binding data were analyzed using steady-state fitting according to the 1:1 model in the Biacore Evaluation Software 2.0 supplied by GE Healthcare. Binding data are reported as % binding of FX variants to the anti-FX antibody (monovalent mAb1-6723) relative to binding of the wild-type FX to the anti-FX antibody at 5 or 10 μM FX variants injected and are calculated according to the formula: […]

Chain of FIX K411A with C-terminal His-tag (P00740 other isoform, or with tags, fused parts or gaps K411A K411A limits assumed): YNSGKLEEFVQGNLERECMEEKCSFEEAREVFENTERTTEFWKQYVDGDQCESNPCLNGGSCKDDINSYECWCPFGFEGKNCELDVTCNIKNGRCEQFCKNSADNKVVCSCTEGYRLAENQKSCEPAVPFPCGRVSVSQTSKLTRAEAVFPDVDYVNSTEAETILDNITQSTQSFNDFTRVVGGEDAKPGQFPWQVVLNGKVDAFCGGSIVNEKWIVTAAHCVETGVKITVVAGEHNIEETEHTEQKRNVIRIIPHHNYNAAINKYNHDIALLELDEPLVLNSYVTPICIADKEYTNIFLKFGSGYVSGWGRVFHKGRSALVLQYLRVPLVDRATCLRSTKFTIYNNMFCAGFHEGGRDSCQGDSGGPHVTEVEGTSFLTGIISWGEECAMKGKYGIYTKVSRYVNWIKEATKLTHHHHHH
Chain of desGla-desEGF1-FX Y230A (P00742 other isoform, or with tags, fused parts or gaps Y230A Y230A): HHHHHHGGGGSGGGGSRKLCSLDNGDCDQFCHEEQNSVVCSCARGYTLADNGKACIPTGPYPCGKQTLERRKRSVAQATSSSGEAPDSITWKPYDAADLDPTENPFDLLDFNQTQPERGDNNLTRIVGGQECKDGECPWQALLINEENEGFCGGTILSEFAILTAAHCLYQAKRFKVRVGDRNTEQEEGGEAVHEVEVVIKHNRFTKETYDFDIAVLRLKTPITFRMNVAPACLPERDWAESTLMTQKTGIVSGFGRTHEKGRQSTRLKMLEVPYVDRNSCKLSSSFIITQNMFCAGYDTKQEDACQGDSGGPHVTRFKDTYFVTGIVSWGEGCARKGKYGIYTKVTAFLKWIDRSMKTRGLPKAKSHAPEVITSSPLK
T2 sequence (P00742 other isoform, or with tags, fused parts or gaps): as the sequence (P00742 other isoform, or with tags, fused parts or gaps Y230A Y230A) above, with A161Y counted along it
Chain of desGla-desEGF1-FX L419A (P00742 other isoform, or with tags, fused parts or gaps L419A L419A): as the sequence (P00742 other isoform, or with tags, fused parts or gaps Y230A Y230A) above, with A161Y, L350A counted along it
Chain of desGla-desEGF1-FX T428A (P00742 other isoform, or with tags, fused parts or gaps T428A T428A): as the sequence (P00742 other isoform, or with tags, fused parts or gaps Y230A Y230A) above, with A161Y, T359A counted along it
Chain of desGla-desEGF1-FX T127A (P00742 other isoform, or with tags, fused parts or gaps T127A T127A): as the sequence (P00742 other isoform, or with tags, fused parts or gaps Y230A Y230A) above, with T58A, A161Y counted along it
Chain of desGla-desEGF1-FX F229A (P00742 other isoform, or with tags, fused parts or gaps F229A F229A): as the sequence (P00742 other isoform, or with tags, fused parts or gaps Y230A Y230A) above, with F160A, A161Y counted along it
Chain of desGla-desEGF1-FX E266A (P00742 other isoform, or with tags, fused parts or gaps E266A E266A): as the sequence (P00742 other isoform, or with tags, fused parts or gaps Y230A Y230A) above, with A161Y, E197A counted along it
Chain of desGla-desEGF1-FX E228A (P00742 other isoform, or with tags, fused parts or gaps E228A E228A): as the sequence (P00742 other isoform, or with tags, fused parts or gaps Y230A Y230A) above, with E159A, A161Y counted along it
Chain of FIX E410Q with C-terminal His-tag (P00740 other isoform, or with tags, fused parts or gaps E410Q E410Q limits assumed): as the sequence (P00740 other isoform, or with tags, fused parts or gaps K411A K411A limits assumed) above, with E410Q, A411K counted along it
Chain of desGla-desEGF1-FX A118S (P00742 other isoform, or with tags, fused parts or gaps A118S A118S): as the sequence (P00742 other isoform, or with tags, fused parts or gaps Y230A Y230A) above, with A49S, A161Y counted along it
Chain of desGla-desEGF1-FX K420A (P00742 other isoform, or with tags, fused parts or gaps K420A K420A): as the sequence (P00742 other isoform, or with tags, fused parts or gaps Y230A Y230A) above, with A161Y, K351A counted along it

Binding (%) relative to wild-type [1]: 100%
Binding (%) relative to wild-type [2]: 32%
Binding (%) relative to wild-type [3]: 8%
Binding (%) relative to wild-type [4]: 82%
Binding (%) relative to wild-type [5]: 23%
Binding (%) relative to wild-type [6]: 94%
Binding (%) relative to wild-type [7]: 76%
Binding (%) relative to wild-type [8]: 12%
Binding (%) relative to wild-type [9]: 39%
Binding (%) relative to wild-type [10]: 71%
B1: mAb3-3279 (monovalent one-armed variant of mAb1-1307) (antibody, V domains shown)
VH: EVQLVESGGGLVQPGRSLRLSCAASGFTFGDYAMHWVRQAPGKGLEWVSGISWNSGSIGYADSVKGRFTISRDNAKNSLYLQMNSLRAEDTALYYCAKGQYDEDAGMDVWGQGTTVTVSS
VL: DIQMTQSPSSLSASVGDRVTITCRASQSISSYLNWYQQKPGKAPKLLIYAASSLQSGVPSRFSGSGSGTDFTLTISSLQPEDFATYYCQQGYPTWTFGGGTKVEIK

Binding (%) relative to wild-type (desGla-desEGF1-FX T116A): 114%
Binding (%) relative to wild-type (desGla-desEGF1-FX A118S): 102%
Binding (%) relative to wild-type (desGla-desEGF1-FX T127A): 113%
Binding (%) relative to wild-type (desGla-desEGF1-FX S227A): 66%
Binding (%) relative to wild-type (desGla-desEGF1-FX E228A): 80%
Binding (%) relative to wild-type (desGla-desEGF1-FX F229A): 99%
Binding (%) relative to wild-type (desGla-desEGF1-FX E266A): 112%
Binding (%) relative to wild-type (desGla-desEGF1-FX R287A): 66%
Binding (%) relative to wild-type (desGla-desEGF1-FX E305A): 97%
Binding (%) relative to wild-type (desGla-desEGF1-FX L419A): 50%
Binding (%) relative to wild-type (desGla-desEGF1-FX K420A): 23%
Binding (%) relative to wild-type (desGla-desEGF1-FX T428A): 81%
Binding (%) relative to wild-type [11]: 100%
Binding (%) relative to wild-type (desGla-desEGF1-FX H101A): 51%
Binding (%) relative to wild-type (desGla-desEGF1-FX E103A): 71%
Binding (%) relative to wild-type (desGla-desEGF1-FX R113A): 28%
Binding (%) relative to wild-type (desGla-desEGF1-FX Y230A): 1%
B2: mAb4-6934 (monovalent one-armed variant of mAb1-6723) (antibody, V domains shown)
VH: EVQLVQSGAEVKKPGESLRISCKGSGYSFTTSWIVWVRQMPGKGLEWMGMIDPSDSFTSYSPSFQGHVTISADKSISTAYLQWSSLKASDTAMYYCARLHYYHSEEFDVWGQGTLVTVSS
VL: EIVLTQSPGTLSLSPGERATLSCRASQSVSSSYLAWYQQKPGQAPRLLIYGASSRARGIPDRFSGSGSGTDFTLTISRLEPEDFAVYYCQQFGSSRLFTFGQGTKLEIK
notes: also called monovalent mAb1-6723
